Measurements: US20230340132A1, “ANTI-ADENOSINE RECEPTOR (A2aR) ANTIBODIES” (NA Biotech Corp, priority 2020, published 2023)
Values joined by “and” are separate entries in the source; they are usually repeats but may differ in a detail not shown here. Identical values can stand only once.

T1: human adenosine receptor A1 (Homo sapiens, UniProt P30542)
T1 construct: FLAG
T1 sequence (P30542 1-326): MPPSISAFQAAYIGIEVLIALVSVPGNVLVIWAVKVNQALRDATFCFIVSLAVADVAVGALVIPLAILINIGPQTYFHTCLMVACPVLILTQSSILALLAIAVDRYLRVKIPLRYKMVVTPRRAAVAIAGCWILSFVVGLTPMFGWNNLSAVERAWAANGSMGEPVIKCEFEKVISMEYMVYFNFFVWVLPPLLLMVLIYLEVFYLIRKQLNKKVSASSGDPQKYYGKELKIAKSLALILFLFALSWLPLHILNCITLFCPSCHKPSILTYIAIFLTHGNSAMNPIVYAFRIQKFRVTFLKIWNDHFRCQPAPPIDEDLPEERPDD

T2: human adenosine receptor A2B (Homo sapiens, UniProt P29275)
T2 construct: FLAG
T2 sequence (P29275 1-332): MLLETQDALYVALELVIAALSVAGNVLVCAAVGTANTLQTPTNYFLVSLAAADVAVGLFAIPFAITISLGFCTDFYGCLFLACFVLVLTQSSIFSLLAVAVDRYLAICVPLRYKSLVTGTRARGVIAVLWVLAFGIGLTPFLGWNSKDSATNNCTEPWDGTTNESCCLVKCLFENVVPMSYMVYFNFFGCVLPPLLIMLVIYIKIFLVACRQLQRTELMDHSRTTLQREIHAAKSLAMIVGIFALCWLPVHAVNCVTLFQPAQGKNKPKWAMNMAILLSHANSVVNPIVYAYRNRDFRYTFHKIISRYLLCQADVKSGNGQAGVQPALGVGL

T3: human adenosine receptor A3 (Homo sapiens, UniProt P0DMS8)
T3 construct: FLAG
T3 sequence (P0DMS8 1-318): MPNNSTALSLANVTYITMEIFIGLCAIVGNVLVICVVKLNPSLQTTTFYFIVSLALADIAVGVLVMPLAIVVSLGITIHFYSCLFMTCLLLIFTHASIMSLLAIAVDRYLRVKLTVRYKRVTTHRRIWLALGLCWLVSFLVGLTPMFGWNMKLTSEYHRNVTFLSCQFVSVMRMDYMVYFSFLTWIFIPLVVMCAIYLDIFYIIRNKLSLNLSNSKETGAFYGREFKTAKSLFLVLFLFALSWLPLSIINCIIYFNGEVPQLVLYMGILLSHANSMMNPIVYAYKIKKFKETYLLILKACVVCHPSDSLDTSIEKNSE


Experiments:
[1] = molecular target: T1, human adenosine receptor A1; experiment: flow cytometry-based cell-binding assay, HEK293T-A1; details: for Geo Mean: HEK293T-A1, duplicate; for binding to HEK293T-A1 relative to binding to human A2aR (in words): summary of Table 12
Procedure: (§1) To test the specificity of the antigen binding molecules of the invention, e.g., anti-A2aR antibodies or antigen binding fragments thereof to human A2aR and not towards any of the other 3 adenosine receptor family members, a flow cytometry-based cell-binding assay was performed by Multispan Inc (Hayward, CA). HEK293T cells stably expressing various adenosine receptors, i.e., human A1R, A2bR, and A3R, and mouse A2R, generated by Multispan Inc and HEK293T parental cell lines were used in the assay. Briefly, adenosine receptor-overexpressing cell lines and HEK293T parental cell lines were incubated with 2, 10, and 50 nM of anti-human A2aR monoclonal antibodies (clones 1B5-3D7 and 3F6-9G5) and 10 and 50 nM of mouse IgG2a Isotype control at 4° C. in the dark for 60 minutes. Anti-FLAG antibody (Abcam, ab72469, 2 μg/mL) was used as positive control for cell lines over-expressing various adenosine receptors, respectively. After 3 washes with FACS buffer (PBS plus 0.1% BSA and 0.2% sodium azide), cells were stained with an anti-mouse-IgG-PE (Invitrogen, cat. P852) detection antibody for 45 minutes at 4° C. The cells were then washed 3 times with FACS buffer and analyzed on FACSort (Becton Dickinson). Data was analyzed using CellQuest Pro (Becton Dickinson).

[2] = molecular target: T2, human adenosine receptor A2B; experiment: flow cytometry-based cell-binding assay, HEK293T-A2B; details: duplicate
Procedure: as §1

[3] = molecular target: T3, human adenosine receptor A3; experiment: flow cytometry-based cell-binding assay, HEK293T-A3; details: duplicate
Procedure: as §1

[4] = molecular target: T4, mouse adenosine receptor A2A (Mus musculus, UniProt Q60613); experiment: flow cytometry-based cell-binding assay, HEK293T-mA2A; details: duplicate
T4 construct: FLAG
T4 sequence (Q60613 whole entry): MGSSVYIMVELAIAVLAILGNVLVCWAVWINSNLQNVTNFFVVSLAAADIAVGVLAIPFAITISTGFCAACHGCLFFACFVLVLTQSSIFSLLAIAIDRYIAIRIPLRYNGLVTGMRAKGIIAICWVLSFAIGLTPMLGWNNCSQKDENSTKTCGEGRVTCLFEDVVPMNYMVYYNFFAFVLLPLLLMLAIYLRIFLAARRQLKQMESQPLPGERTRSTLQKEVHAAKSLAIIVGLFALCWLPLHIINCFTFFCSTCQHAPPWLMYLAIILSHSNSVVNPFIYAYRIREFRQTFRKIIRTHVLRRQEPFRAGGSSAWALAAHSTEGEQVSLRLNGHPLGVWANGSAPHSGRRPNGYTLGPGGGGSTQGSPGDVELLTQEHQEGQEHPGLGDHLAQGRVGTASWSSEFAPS
Procedure: as §1

parental Expi293 cells [5] = experiment: FACS screening of hybridoma clones on parental Expi293 cells; assay type: binding; details: antibodies from hybridoma clones
Procedure: Serum titration was performed using Fluorescence-Activated Cell Sorting (FACS) pursuant to standard procedures. Human A2aR-expressing Expi293 cells were first added to 96-well plate (1×10^5 cells per well), 50 μl of serial diluted serum (1:50, 1;150, 1:450, 1:[…], 1:12150) from each individual mouse was incubated with cells for 30 min. on ice. After washing with FACS buffer (2% Fetal bovine serum, 2 mM EDTA in PBS), Alex Fluor 647-conjugated anti mouse IgG was added and incubated for 20 min on ice. Cells were resuspending with 100 μl FACS buffer after two times wash and ready for FACS analysis (BD LSR II Flow Cytometer, HTS). […] (MFI: mean fluorescence intensity).
Primary screening of the hybridoma supernatants in the 96-well plates was performed using the same FACS procedure as described for serum titration except following changes: 1) Human A2aR-expressing Expi293 cells (expressing GFP) were mixed at 1:1 ratio with parental Expi293 (no A2aR expression) and added to 96-well plates (2×10^5 cells per well), 2) 50 μl hybridoma supernatant transferred from each well of 96-well plates was incubated with cells for 30 min. on ice.
Sub-cloning was performed by limiting dilution method. In short, the positive wells identified by FACS were seeded into 96-well plate at an average density of 1 cell/well. The […] was placed in incubator for 7-10 days to allow the growth of the cells. The growth of cells was monitored periodically. At about day 4, the wells on the plate were observed under phase contrast microscopy and the wells which appeared to have single colony growing (i.e., only one clumping of hybridomas) were recorded. The cells from the single colony wells were screed by FACS using the same procedure as described for primary screening of hybridoma when the confluence of the cell reached about 50%.

parental Expi293 cells [6] = experiment: FACS binding titration on parental Expi293 cells; details: 12-point 1:2 serial dilution starting from 7.5 ug/ml
Procedure: Human A2aR-expressing Expi293 cells or parental Expi293 cells were first added to 96-well plate (1×10^5 cells per well). Fifty microliters (50 μl) of 12-point 1:2 serial diluted samples starting from 7.5 ug/ml for each antibody was incubated with cells for 30 minutes on ice. After being washed with FACS buffer (2% Fetal bovine serum in DPBS), […] of Alex Fluor 633-conjugated anti mouse IgG (Life technology, Cat.A21050) or Alex Fluor 647-conjugated anti-human IgG was added and incubated for 30 minutes on ice. Cells were resuspended with 100 μl of FACS buffer after two washes. One hundred microliters 100 μl of 1:50 diluted 7-AAD for live/dead staining was added to the cell suspension, which was ready for FACS analysis (BD Accuri C6 plus or LSR II Flow Cytometer, HTS).

| Molecule | Geo Mean ([1]; 2 nM) | Geo Mean ([1]; 10 nM) | Geo Mean ([1]; 50 nM) | binding to HEK293T-A1 relative to binding to human A2aR (in words) [1] | Geo Mean ([2]; 2 nM) | Geo Mean ([2]; 50 nM) | Geo Mean ([3]; 2 nM) | Geo Mean ([3]; 10 nM) | Geo Mean ([3]; 50 nM) | Geo Mean ([4]; 2 nM) | Geo Mean ([4]; 10 nM) | Geo Mean ([4]; 50 nM) | binding to parental Expi293 cells (FIG. 2) (parental Expi293 cells [5]) | binding to parental Expi293 (FIG. 5) (parental Expi293 cells [6]) |
| --- | --- | --- | --- | --- | --- | --- | --- | --- | --- | --- | --- | --- | --- | --- |
| anti-human A2aR monoclonal antibody 1B5-3D7 (antibody, V domains shown, Tested as whole mouse IgG2a / kappa, purified from hybridoma supernatant or made recombinantly in Expi293 cells; also called 1B-3D7) VH: QVQLQQPGTELVKPGAPVKLSCKTSGFTFTRFWMNWVRQRPGRGLEWIGRIDPYDSETQYNHKFWDRATLTVDKSSSTVYIQLSSLTSEDSAVYYCGRSLYGKGDYWGQGTTLTVSS VL: DVLMTQSPLSLPVSLGDQASISCRSSQSIVHSNGNTYLEWYLQRPGQSPKLLIYKVSNRFSGVPDRFSGSGSGTYFTLRISRVEAEDLGIYYCFQGSHVPLTFGSGTTLELK | 10.15 and 11.83 | 18.4 and 24.97 | 27.59 and 30.66 | significantly weaker | 5.42 and 3.8 | 3.42 and 2.79 | 2.11 and 2.09 | 2.23 and 2.32 | 2.45 and 2.3 | 2.96 and 3.82 | 4.13 and 6.16 | 3.48 and 6.03 | not to parental Expi293 cells | not to parental Expi293 |
| 3F6-9G5: anti-human A2aR monoclonal antibody from mouse hybridoma clone; HCVR SEQ ID NO: 36, LCVR SEQ ID NO: 42 (antibody, V domains shown) VH: QVQLQQPGTELVKPGAPVRLSCKASGFAFTSYWMNWVRQRPGRGLEWIGRIDPSDSEAHYHHKFWGKATLTVDKSSSTVYIQLNGLTSEDSAVYYCLRSLYGKGDYWGHGTTLTVSS VL: DVLMTQTPLSLSVRLGDQASISCRSSQSLVHRNGNTYLEWYLQRPGQSPKLLIYKVSNRFSGVPDRFSGSGSGTDFTLKISRVEAEDLGVYYCYQGSHVPLTFGSGTKLEIK | 8.35 and 8.81 | 15.26 and 15.56 | 22.97 and 22.51 | significantly weaker | 3.13 and 2.8 | 7.27 and 3.74 | 2.07 and 1.96 | 2.49 and 2.33 | 2.66 and 2.25 | 2.9 and 3.08 | 3.7 and 3.25 | 4.98 and 4.76 | not to parental Expi293 cells | not to parental Expi293 |
